Source: US20150191520A1 (MEDIZINISCHE UNIVERSIT T WIEN, published 2015)
One block for each binder: values may come before it.

Legend:
[1] = biological target: T1, immunoglobulin-like transcript 4 (ILT4) (human, UniProt Q8N423 22-597); assay: flow cytometry: rh-C4d (C4Ad per the FIG. 3a legend) titrated on Bw-ILT4 cells, detected with C4d-mMAb, Langmuir 1:1 isotherm; stated to be a minimum estimate (non-equilibrium assay)
T1 construct: Expressed on Bw5147 cells from a 2 kb retroviral insert; In the functional assays it is the native receptor on human monocytes; also called CD85d; LILRB2
Protocol: FIG. 3. Classical receptor-ligand interaction between C4d and ILT4. a Bw-ILT4 cells or control Bw cells (Bw-mock) were incubated with different concentrations of C4Ad and cell-bound C4Ad was measured by flow cytometry using C4d-mMAb for detection. Data obtained for C4Ad are representative for those using C4Bd, data not shown. Mean and standard deviation of triplicate measurements are shown. b Dissociation constant (Kd) of the C4d-ILT4 interaction assessed via Langmuir binding isotherm equation for single class 1:1 binding equilibrium based on data shown in FIG. 3a.
(§1) Flow cytometric analyses were performed via a FACSCalibur flow cytometrer (BD Biosciences, Franklin Lakes, N.J.) using 60,000 cells per sample resuspended in FACS-buffer. In experiments employing monocytes or moDCs, human IgG (Beriglobin P; CSL Behring, Vienna, Austria) was used at 20 mg/mL to block Fcγ receptors. For fluorescence-activated cell sorting (FACS), Bw cells expressing a retroviral cDNA expression library generated from moDC¹⁶ were incubated with biotinylated rh-C4Ad or rh-C4Bd (20m/mL each) in FACS-buffer for 30 minutes on ice followed by two washing steps and subsequent detection of bound biotinylated C4d molecules through incubation with SA-PE. FACS was performed using a FACSDiva (BD Biosciences).

[2] = biological target: T1, immunoglobulin-like transcript 4 (ILT4); assay: flow cytometry, biotinylated C4d (20 µg/mL) on Bw cells expressing ILT4
Text: FIG. 1. Identification of ILT4 as cellular receptor for C4d. a Flow cytometric analyses showing the interaction of biotinylated recombinant human C4d (20m/mL) of both isoforms, rh-C4Ad and rh-C4Bd, with monocytes and monocyte-derived dendritic cells (moDC; grey histograms). Open histograms represent the reactivity of the secondary reagent with these cells. SA-PE: streptavidin-R-PE. b C4d-reactive cells were enriched from a Bw cell pool expressing a cDNA library derived from human moDC by multiple rounds of FACS. Data obtained for rh-C4Bd are representative for those obtained using rh-C4Ad (data not shown). Sorting gates are shown. c Single cell clones derived from the C4d reactive Bw cell pool were probed with rh-C4Ad- and rh-C4Bd. MFI: mean fluorescence intensity. d PCR-amplification of the retroviral inserts of the C4d-b(C4Bd) binding clones 1.5 and 3.7. e Bw cells expressing a 2 kb retroviral insert encoding immunoglobulin-like transcript 4 (ILT4) were probed with biotinylated rh-C4Ad, rh-C4Bd and C4d isolated from human plasma (ih-C4d) each at 20m/mL or ILT4-specific mMAb (grey histograms). Open histograms represent reactivity of C4d molecules and ILT4 mMAb with control Bw-cells. f Monocytes and moDC were analyzed for ILT4 expression (grey histograms, ILT4-mMAb; open histograms, isotype control). […]

[3] = biological target: T2, isolated human iC3b (ih-iC3b) (human, UniProt P01024 23-667; P01024 749-1303; P01024 1321-1663, limits assumed, biotin on amino groups (Biotin-X-NHS) in flow cytometry; unlabelled in ELISA); assay: flow cytometry, CSP on transduced Bw cells (FIG. 5a)
T2 construct: Multi-chain fragment
Protocol: (§2) FIG. 5. Flow cytometric analysis of the interaction of C4d, C3d, C4b, C3b and iC3b and human MHC class I tetramers with Bw cells transduced to express a ILT1 transcript variants 1 and 2 (ILT1v1 and ILT1v2), ILT3 and ILT7, b previously established complement receptors CD21, CD46 and CRIg, and c PIR-A transcript variant 1 (PIR-Avl), murine ortholog of ILT1. a-c left panels: Expression of transduced receptors was assessed using specific antibodies (grey histograms); open histograms represent reactivity of these antibodies with control Bw cells. d Plate-bound CSP were probed with a recombinant protein representing the human CD35 extracellular domain (rh-sCD35) via ELISA. BSA was used as a plate-bound ligand control; white control bars represent no rh-sCD35 added to the assay.
as §1, with “In experiments employing monocytes or moDCs, human IgG (Beriglobin P; CSL Behring, Vienna, Austria) was used at 20 mg/mL to block Fcγ receptors.” left out, “FACS was performed using a FACSDiva (BD Biosciences).” left out

[4] = biological target: T3, isolated human C3b (ih-C3b) (human, UniProt P01024 749-1663; P01024 23-667, limits assumed, biotin on amino groups (Biotin-X-NHS) in flow cytometry; unlabelled in ELISA); assay: as above
T3 construct: Multi-chain fragment
Protocol: as §2
as §1, with “In experiments employing monocytes or moDCs, human IgG (Beriglobin P; CSL Behring, Vienna, Austria) was used at 20 mg/mL to block Fcγ receptors.” left out, “FACS was performed using a FACSDiva (BD Biosciences).” left out

[5] = biological target: T2, isolated human iC3b (ih-iC3b); assay: flow cytometry, CSP on transduced Bw cells (FIG. 2a)
Protocol: (§3) FIG. 2. Interaction of ILT4 and ILT5v2 with C4d, C4b, C3d, C3b and iC3b. a Flow cytometric analysis of Bw cells transduced to express ILT2, ILT4 and ILT5-antigenic variants 1 and 2 (ILT5v1 and ILT5v2). Expression of ILT-receptors was verified with specific monoclonal antibodies (left panels, grey histograms; open histograms represent reactivity of ILT MAbs with mock treated Bw cells). Interaction of Bw cells expressing ILT-molecules and mock-treated Bw cells with the indicated CSPs (20 μg/mL each) and with MHC-class I tetramers (further panels, grey histograms). b Interaction of plate-bound CSPs with recombinant human ILT4-Fc fusion protein (rh-ILT4-Fc) or control Fc-fusion protein (rh-ILT3-Fc) was analyzed in an ELISA. c Bw cells transduced to express PIR-B, the murine ortholog of ILT4, were probed with a PIR-B-specific monoclonal antibody or with human CSPs and human MHC-class I tetramers.
(§4) Flow cytometric analyses were performed via a FACSCalibur flow cytometrer (BD Biosciences, Franklin Lakes, N.J.) using 60,000 cells per sample resuspended in FACS-buffer. In experiments employing monocytes or moDCs, human IgG (Beriglobin P; CSL Behring, Vienna, Austria) was used at 20 mg/mL to block Fcγ receptors. […]

[6] = biological target: T3, isolated human C3b (ih-C3b); assay: as above
Protocol: as §3, §4

T1 sequence (Q8N423 other isoform, or with tags, fused parts or gaps limits assumed): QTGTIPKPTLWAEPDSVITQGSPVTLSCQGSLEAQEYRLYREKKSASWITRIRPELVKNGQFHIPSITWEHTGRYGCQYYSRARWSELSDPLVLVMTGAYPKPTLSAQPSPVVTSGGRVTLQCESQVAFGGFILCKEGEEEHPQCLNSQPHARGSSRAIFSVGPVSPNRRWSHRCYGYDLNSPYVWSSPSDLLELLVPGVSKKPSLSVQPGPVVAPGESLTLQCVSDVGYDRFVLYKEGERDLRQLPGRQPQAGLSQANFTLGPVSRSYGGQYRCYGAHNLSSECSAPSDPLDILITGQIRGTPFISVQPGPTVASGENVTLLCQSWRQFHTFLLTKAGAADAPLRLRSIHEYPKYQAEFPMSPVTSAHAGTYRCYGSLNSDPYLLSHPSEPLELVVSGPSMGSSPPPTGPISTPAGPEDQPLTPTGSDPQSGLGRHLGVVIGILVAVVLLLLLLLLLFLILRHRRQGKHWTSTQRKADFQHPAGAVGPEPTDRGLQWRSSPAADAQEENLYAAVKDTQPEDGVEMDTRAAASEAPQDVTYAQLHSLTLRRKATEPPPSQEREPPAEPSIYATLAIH

B1: recombinant human C4d, isoform C4d-A (rh-C4Ad) (ligand)
chain: TLEIPGNSDPNMIPDGDFNSYVRVTASDPLDTLGSEGALSPGGVASLLRLPRGCGEQTMIYLAPTLAASRYLDKTEQWSTLPPETKDHAVDLIQKGYMRIQQFRKADGSYAAWLSRDSSTWLTAFVLKVLSLAQEQVGGSPEKLQETSNWLLSQQQADGSFQDPCPVLDRSMQGGLVGNDETVALTAFVTIALHHGLAVFQDEGAEPLKQRVEASISKANSFLGEKASAGLLGAHAAAITAYALTLTKAPVDLLGVAHNNLMAMAQETGDNLYWGSVTGSQSNAVSPTPAPRNPSDPMPQAPALWIETTAYALLHLLLHEGKAEMADQASAWLTRQGSFQGGFRSTQDTVIALDALSAYWIASHTTEERGLNVTLSSTGR
modifications: biotin on amino groups (Biotin-X-NHS) or, when indicated, on the thioester cysteine C1010 (prepro numbering) via Iodoacetyl-LC-biotin; unlabelled in FIG. 3a and when used as competitor
notes: also called complement split product C4Ad; rh-C4d
- Kd [1]: 630 nM

B2: recombinant human C4d, isoform C4d-B (rh-C4Bd) (ligand)
chain: TLEIPGNSDPNMIPDGDFNSYVRVTASDPLDTLGSEGALSPGGVASLLRLPRGCGEQTMIYLAPTLAASRYLDKTEQWSTLPPETKDHAVDLIQKGYMRIQQFRKADGSYAAWLSRGSSTWLTAFVLKVLSLAQEQVGGSPEKLQETSNWLLSQQQADGSFQDLSPVIHRSMQGGLVGNDETVALTAFVTIALHHGLAVFQDEGAEPLKQRVEASISKASSFLGEKASAGLLGAHAAAITAYALTLTKAPADLRGVAHNNLMAMAQETGDNLYWGSVTGSQSNAVSPTPAPRNPSDPMPQAPALWIETTAYALLHLLLHEGKAEMADQAAAWLTRQGSFQGGFRSTQDTVIALDALSAYWIASHTTEERGLNVTLSSTGR
modifications: biotin on amino groups (Biotin-X-NHS) or, when indicated, on the thioester cysteine C1010 (prepro numbering) via Iodoacetyl-LC-biotin; unlabelled when used as competitor
notes: also called complement split product C4Bd; rh-C4d
- binding result [2]: binds

Second part, the binder after the results:

- binding result [3]: no binding
- binding result [4]: no binding
B3: ILT7 (receptor, human, UniProt P59901 24-499, looked up)
chain: ENLLKPILWAEPGPVITWHNPVTIWCQGTLEAQGYRLDKEGNSMSRHILKTLESENKVKLSIPSMMWEHAGRYHCYYQSPAGWSEPSDPLELVVTAYSRPTLSALPSPVVTSGVNVTLRCASRLGLGRFTLIEEGDHRLSWTLNSHQHNHGKFQALFPMGPLTFSNRGTFRCYGYENNTPYVWSEPSDPLQLLVSGVSRKPSLLTLQGPVVTPGENLTLQCGSDVGYIRYTLYKEGADGLPQRPGRQPQAGLSQANFTLSPVSRSYGGQYRCYGAHNVSSEWSAPSDPLDILIAGQISDRPSLSVQPGPTVTSGEKVTLLCQSWDPMFTFLLTKEGAAHPPLRLRSMYGAHKYQAEFPMSPVTSAHAGTYRCYGSRSSNPYLLSHPSEPLELVVSGATETLNPAQKKSDSKTAPHLQDYTVENLIRMGVAGLVLLFLGILLFEAQHSQRSPPRCSQEANSRKDNAPFRVVEPWEQI
notes: whole, on cells

- binding result [5]: no binding (tested: 20 µg/mL)
- binding result [6]: no binding (tested: 20 µg/mL)
B4: ILT2 (receptor, human, UniProt Q8NHL6 24-650, looked up)
chain: GHLPKPTLWAEPGSVITQGSPVTLRCQGGQETQEYRLYREKKTALWITRIPQELVKKGQFPIPSITWEHAGRYRCYYGSDTAGRSESSDPLELVVTGAYIKPTLSAQPSPVVNSGGNVILQCDSQVAFDGFSLCKEGEDEHPQCLNSQPHARGSSRAIFSVGPVSPSRRWWYRCYAYDSNSPYEWSLPSDLLELLVLGVSKKPSLSVQPGPIVAPEETLTLQCGSDAGYNRFVLYKDGERDFLQLAGAQPQAGLSQANFTLGPVSRSYGGQYRCYGAHNLSSEWSAPSDPLDILIAGQFYDRVSLSVQPGPTVASGENVTLLCQSQGWMQTFLLTKEGAADDPWRLRSTYQSQKYQAEFPMGPVTSAHAGTYRCYGSQSSKPYLLTHPSDPLELVVSGPSGGPSSPTTGPTSTSGPEDQPLTPTGSDPQSGLGRHLGVVIGILVAVILLLLLLLLLFLILRHRRQGKHWTSTQRKADFQHPAGAVGPEPTDRGLQWRSSPAADAQEENLYAAVKHTQPEDGVEMDTRSPHDEDPQAVTYAEVKHSRPRREMASPPSPLSGEFLDTKDRQAEEDRQMDTEAAASEAPQDVTYAQLHSLTLRREATEPPPSQEGPSPAVPSIYATLAIH
notes: whole, on cells
